Columns and labels:
Experiment in all cases: holdup assay
Set-up in all cases: key: below the threshold = too weak to quantify, mostly under pKd 3.1 to 4
Conditions in all cases: plain residues with an end cap or a label only (N-terminal biotin on a linker: ado-ado)
[1] = target: DLG4_2, P78352
[2] = target: MAGI2_4, Q86UL8
[3] = target: DLG1_3, Q12959
[4] = target: T1, DLG3_1, Q92796
T1 sequence (Q92796 125-227, limits assumed, looked up): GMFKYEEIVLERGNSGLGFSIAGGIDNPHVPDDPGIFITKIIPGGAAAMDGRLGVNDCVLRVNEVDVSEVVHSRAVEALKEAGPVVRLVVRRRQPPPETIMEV

[5] = target: MAGI3_2, Q5TCQ9
[6] = target: Inadl_10, Q8NI35
[7] = target: PDZRN4_1, Q6ZMN7
[8] = target: DLG1_1, Q12959
[9] = target: T2, MPP2, Q14168
T2 sequence (Q14168 180-250, limits assumed, looked up): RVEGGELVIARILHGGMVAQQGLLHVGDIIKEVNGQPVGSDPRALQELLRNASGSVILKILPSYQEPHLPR

[10] = target: LNX1_2, Q8TBB1
[11] = target: T3, APBA2_2, Q99767
T3 sequence (Q99767 654-744, limits assumed, looked up): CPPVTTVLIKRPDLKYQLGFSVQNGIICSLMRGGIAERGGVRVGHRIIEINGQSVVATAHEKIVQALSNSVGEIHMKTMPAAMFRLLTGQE

[12] = target: T4, RADIL, Q96JH8
T4 sequence (Q96JH8 971-1071, limits assumed, looked up): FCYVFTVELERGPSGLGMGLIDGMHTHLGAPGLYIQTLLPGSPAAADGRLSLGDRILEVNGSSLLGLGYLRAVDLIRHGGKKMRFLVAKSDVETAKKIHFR

[13] = target: T5, ARHGEF11, O15085
T5 sequence (O15085 42-136, limits assumed, looked up): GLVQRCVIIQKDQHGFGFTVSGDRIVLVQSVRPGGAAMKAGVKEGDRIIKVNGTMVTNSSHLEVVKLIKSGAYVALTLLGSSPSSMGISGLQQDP

[14] = target: T6, CARD11, Q9BXL7
T6 sequence (Q9BXL7 662-765, limits assumed, looked up): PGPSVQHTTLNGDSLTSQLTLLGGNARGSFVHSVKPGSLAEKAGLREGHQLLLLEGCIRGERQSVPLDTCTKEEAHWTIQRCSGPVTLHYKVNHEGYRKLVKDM

[15] = target: T7, LNX2_2, Q8N448
T7 sequence (Q8N448 334-432, limits assumed, looked up): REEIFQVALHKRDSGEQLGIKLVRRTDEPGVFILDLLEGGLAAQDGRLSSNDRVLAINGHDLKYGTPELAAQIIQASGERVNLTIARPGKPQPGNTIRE

[16] = target: T8, MPDZ_5, O75970
T8 sequence (O75970 695-796, limits assumed, looked up): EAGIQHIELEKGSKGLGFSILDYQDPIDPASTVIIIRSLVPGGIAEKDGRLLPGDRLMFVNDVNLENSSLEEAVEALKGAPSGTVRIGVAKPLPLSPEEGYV

[17] = target: T9, SNTB1, Q13884
T9 sequence (Q13884 107-205, limits assumed, looked up): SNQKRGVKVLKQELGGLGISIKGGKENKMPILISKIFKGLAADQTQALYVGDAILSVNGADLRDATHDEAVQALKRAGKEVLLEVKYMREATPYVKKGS

[18] = target: T10, GRIP1_2, Q9Y3R0
T10 sequence (Q9Y3R0 145-248, limits assumed, looked up): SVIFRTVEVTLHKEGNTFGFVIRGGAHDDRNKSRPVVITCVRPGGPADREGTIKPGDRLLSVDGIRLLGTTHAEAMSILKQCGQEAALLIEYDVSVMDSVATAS

[19] = target: DLG2_3, Q15700
[20] = target: TJP1_2, Q07157
[21] = target: LAP2, Q96RT1
[22] = target: T11, APBA1_1, Q02410
T11 sequence (Q02410 651-752, limits assumed, looked up): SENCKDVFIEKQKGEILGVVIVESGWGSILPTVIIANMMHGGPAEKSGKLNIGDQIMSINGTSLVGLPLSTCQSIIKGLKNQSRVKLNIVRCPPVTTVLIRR

[23] = target: PICK1, Q9NRD5
[24] = target: TJP2_1, Q9UDY2
[25] = target: AHNAK1, Q09666
[26] = target: T12, TX1BP3, O14907
T12 sequence (O14907 10-122, limits assumed, looked up): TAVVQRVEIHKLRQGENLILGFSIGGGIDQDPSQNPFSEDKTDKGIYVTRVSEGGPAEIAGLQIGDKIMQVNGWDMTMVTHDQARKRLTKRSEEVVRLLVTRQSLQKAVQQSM

Chain of AHNAK1, Q09666 (Q09666 4-100): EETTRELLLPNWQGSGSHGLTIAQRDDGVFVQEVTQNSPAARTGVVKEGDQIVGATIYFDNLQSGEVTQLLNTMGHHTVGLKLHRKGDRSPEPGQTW
Chain of LNX1_2, Q8TBB1 (Q8TBB1 371-470): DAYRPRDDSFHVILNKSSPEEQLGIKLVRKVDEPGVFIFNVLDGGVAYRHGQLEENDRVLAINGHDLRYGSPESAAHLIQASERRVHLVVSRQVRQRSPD
Chain of PICK1, Q9NRD5 (Q9NRD5 17-115): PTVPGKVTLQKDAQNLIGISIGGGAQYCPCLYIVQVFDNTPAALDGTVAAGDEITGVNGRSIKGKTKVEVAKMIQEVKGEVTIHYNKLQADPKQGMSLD
Chain of MAGI3_2, Q5TCQ9 (Q5TCQ9 398-503): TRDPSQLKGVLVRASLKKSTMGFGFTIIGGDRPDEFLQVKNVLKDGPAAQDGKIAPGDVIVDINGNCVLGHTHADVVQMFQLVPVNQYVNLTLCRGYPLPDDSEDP
Chain of TJP1_2, Q07157 (Q07157 181-274): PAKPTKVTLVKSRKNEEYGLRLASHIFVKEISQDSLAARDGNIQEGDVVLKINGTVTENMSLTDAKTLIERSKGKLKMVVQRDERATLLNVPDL
Chain of MAGI2_4, Q86UL8 (Q86UL8 772-865): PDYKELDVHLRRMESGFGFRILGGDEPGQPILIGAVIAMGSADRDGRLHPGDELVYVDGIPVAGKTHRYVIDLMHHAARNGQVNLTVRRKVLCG
Chain of TJP2_1, Q9UDY2 (Q9UDY2 24-128): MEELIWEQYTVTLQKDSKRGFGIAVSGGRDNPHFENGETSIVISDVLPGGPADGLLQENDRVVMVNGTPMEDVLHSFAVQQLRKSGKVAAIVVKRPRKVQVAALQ
Chain of Inadl_10, Q8NI35 (Q8NI35 1673-1763): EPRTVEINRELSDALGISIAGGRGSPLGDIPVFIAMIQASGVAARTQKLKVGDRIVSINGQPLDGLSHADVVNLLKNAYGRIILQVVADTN
Chain of LAP2, Q96RT1 (Q96RT1 other isoform, or with tags, fused parts or gaps): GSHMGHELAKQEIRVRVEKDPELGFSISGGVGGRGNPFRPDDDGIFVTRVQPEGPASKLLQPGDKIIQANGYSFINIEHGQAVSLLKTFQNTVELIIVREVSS
Chain of PDZRN4_1, Q6ZMN7 (Q6ZMN7 213-318): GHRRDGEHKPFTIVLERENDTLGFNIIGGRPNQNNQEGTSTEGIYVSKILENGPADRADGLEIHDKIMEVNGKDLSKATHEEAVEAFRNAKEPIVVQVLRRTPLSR
Chain of DLG4_2, P78352 (P78352 155-259): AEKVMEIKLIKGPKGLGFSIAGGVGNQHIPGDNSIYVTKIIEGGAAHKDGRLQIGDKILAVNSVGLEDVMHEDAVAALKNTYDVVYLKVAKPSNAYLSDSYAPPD

pKd [1]: 3.88
pKd [2]: below the threshold
pKd [3]: below the threshold
pKd [4]: below the threshold
pKd [5]: 4.4
pKd [6]: below the threshold
pKd [7]: below the threshold
pKd [8]: below the threshold
pKd [9]: below the threshold
pKd [10]: below the threshold
pKd [11]: below the threshold
pKd [12]: below the threshold
pKd [13]: below the threshold
pKd [14]: below the threshold
pKd [15]: below the threshold
pKd [16]: 3.82
pKd [17]: below the threshold
pKd [18]: below the threshold
pKd [19]: below the threshold
pKd [20]: 3.62
pKd [21]: 3.9
pKd [22]: below the threshold
pKd [23]: below the threshold
pKd [24]: below the threshold
pKd [25]: below the threshold
pKd [26]: 3.51
B1: OR10G3, Q8NGC4 (peptide)
chain: LRSPRTPSEV

From PMC9482650, “Quantitative fragmentomics allow affinity mapping of interactomes” (Nature Communications, 2022)
